The values below come from PMC9935876, “Structure of the planar cell polarity cadherins Fat4 and Dachsous1” (Nature Communications, 2023).

Changes are numbered by the printed parent chain. Names and notes keep the numbering of the source. Values joined by “and” are separate entries in the source; they are usually repeats but may differ in a detail not shown here. Equal values may be shown once.

What all share (conditions): both partners purified
For one experiment, the target named is T1, Human Fat4(EC1-4) R152A (human, UniProt Q6V0I7 43-475, R152A).
T1 construct: human Fat4, EC1-EC4, aa43-475, with R152A in EC2; also called Fat4R152A(EC1-4); Fat4R152A
T1 sequence: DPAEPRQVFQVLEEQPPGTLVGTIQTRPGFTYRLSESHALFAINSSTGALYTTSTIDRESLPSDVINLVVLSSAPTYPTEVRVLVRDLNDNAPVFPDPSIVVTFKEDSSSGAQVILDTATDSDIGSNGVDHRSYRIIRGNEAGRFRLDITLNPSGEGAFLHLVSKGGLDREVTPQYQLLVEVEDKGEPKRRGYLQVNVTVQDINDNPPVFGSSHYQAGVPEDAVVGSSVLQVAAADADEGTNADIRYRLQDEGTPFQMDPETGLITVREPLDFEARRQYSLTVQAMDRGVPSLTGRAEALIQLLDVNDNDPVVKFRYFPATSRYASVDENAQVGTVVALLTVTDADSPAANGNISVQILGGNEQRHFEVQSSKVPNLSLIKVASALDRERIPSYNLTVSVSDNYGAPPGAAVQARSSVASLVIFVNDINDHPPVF
As to the kind of experiment: ITC; MicroCal ITC200; Fat4 constructs 30 µM in the sample cell, Dchs1 constructs 300 µM as titrants; 20 °C; one set of sites. On the technique in general: ITC needs no label: the signal is the heat of the interaction.

Experiment [1] has as its target T2, Human Fat4(EC1-4) (human, UniProt Q6V0I7 43-475).
T2 construct: human Fat4, extracellular cadherin domains EC1-EC4, aa43-475; A 3C protease site stands between the protein and the C-terminal BAP-tag and His6; also called WT
T2 sequence: T1 sequence with A112R
Described as above.

In the next experiment the target is T3, Human Fat4(EC1-4) F358A (human, UniProt Q6V0I7 43-475, F358A).
T3 construct: human Fat4, EC1-EC4, aa43-475, with F358A in EC4; also called Fat4F358A(EC1-4); Fat4F358A
T3 sequence: T1 sequence with A112R, F318A
The description is as above.

Experiment [2] deals with T4, Human Fat4(EC1-4) (human, UniProt Q6V0I7 43-475).
T4 construct: Fat4, human, EC1-EC4, aa43-475; Tags were cleaved only for the constructs meant for co-crystallisation; nothing is said for ITC; also called Fat4 EC1–EC4
T4 sequence: T1 sequence with A112R
As to the kind of experiment: ITC; MicroCal ITC200; Fat4 construct 30 µM in the sample cell, Dchs1 construct 300 µM as titrant; 20 °C; fitted with one set of sites; two independent experiments.

The target in the next experiment is T5, Human Fat4F358A(EC1-4) (human, UniProt Q6V0I7 43-475, F358A).
T5 construct: Fat4, human, EC1-EC4, aa43-475, with F358A in EC4
T5 sequence: T1 sequence with A112R, F318A
The experiment is described as above.

The target of experiment [3] is T4, Human Fat4(EC1-4). Described as above. This is another data set of the same source.

Usually stoichiometry N stands for the number of molecules, sites or subunits per partner or assembly. The term Kd denotes the free concentration of one partner at which half of the binding sites on the other are occupied at equilibrium, for simple one-to-one binding. A higher Kd goes with a looser complex.

B1: Human Dchs1(EC1-4) (domain or fragment)
chain: DPQAGSLDLQIDEEQPAGTLIGDISAGLPAGTAAPLMYFISAQEGSGVGTDLAIDEHSGVVRTARVLDREQRDRYRFTAVTPDGATVEVTVRVADINDHAPAFPQARAALQVPEHTAFGTRYPLEPARDADAGRLGTQGYALSGDGAGETFRLETRPGPDGTPVPELVVTGELDRENRSHYMLQLEAYDGGSPPRRAQALLDVTLLDINDHAPAFNQSRYHAVVSESLAPGSPVLQVFASDADAGVNGAVTYEINRRQSEGDGPFSIDAHTGLLQLERPLDFEQRRVHELVVQARDGGAHPELGSAFVTVHVRDANDNQPSMTVIFLSADGSPQVSEAAPPGQLVARISVSDPDDGDFAHVNVSLEGGEGHFALSTQDSVIYLVCVARRLDREERDAYNLRVTATDSGSPPLRAEAAFVLHVTDVNDNAPAF
notes: human Dachsous1 (Dchs1), extracellular cadherin domains EC1-EC4, aa43-472; A 3C protease site stands between the protein and the C-terminal BAP-tag and His6; also called Dachsous1; WT
As for B1, the entries for the “stoichiometry N” value with Human Fat4(EC1-4) R152A, with Human Fat4(EC1-4) [1] and with Human Fat4(EC1-4) F358A were 0.965 ± 0.0359 sites, 1.06 ± 0.0114 sites and 0.915 ± 0.0119 sites, respectively.

B2: Human Dchs1(EC1-4) (domain or fragment)
chain: B1 chain
notes: Dchs1 (Dachsous1), human, EC1-EC4, aa43-472; also called Dachsous1 EC1–EC4
Consider B2, for which the Kd with Human Fat4(EC1-4) [2] was 488 nM and 463 nM; in the experiment with Human Fat4F358A(EC1-4) it was 950 nM and 770 nM.

B3: Human Dchs1F79A(EC1-4) (domain or fragment)
chain: B1 chain with F39A
notes: Dchs1 (Dachsous1), human, EC1-EC4, aa43-472, with F79A in EC1
Regarding B3, the Kd with Human Fat4(EC1-4) [3] was 1560 nM and 2480 nM.
